Numbering of substitutions follows the chain as printed.
Legend:
[1] = target: human Programmed Death-1 (PD-1) expressed on the cell surface (human) (UniProt Q15116); test: flow cytometry blocking assay: HEK293 cells expressing PD-1 incubated with 10 µg/ml isotype control, washed, stained with PD-L1-Ig Alexa-488; negative control of blocking
[2] = target: T1, human Programmed Death-1 (PD-1) expressed on the cell surface (human, UniProt Q15116 25-288); test: cell-based or functional assay
[3] = target: T1, human Programmed Death-1 (PD-1) …; test: cell-based or functional assay; remark: listed apart in the source
[4] = target: T1, human Programmed Death-1 (PD-1) …; test: cell-based or functional assay; remark: listed apart in the source
[5] = target: T1, human Programmed Death-1 (PD-1) …; test: cell-based or functional assay; remark: listed apart in the source
[6] = target: T2, soluble extracellular domain of human PD-1 (human, UniProt Q15116 25-170); test: BLI (ForteBio Octet Red), antibody on the biosensor, soluble PD-1 ECD as analyte
T2 construct: extracellular domain
T2 sequence (Q15116 25-170): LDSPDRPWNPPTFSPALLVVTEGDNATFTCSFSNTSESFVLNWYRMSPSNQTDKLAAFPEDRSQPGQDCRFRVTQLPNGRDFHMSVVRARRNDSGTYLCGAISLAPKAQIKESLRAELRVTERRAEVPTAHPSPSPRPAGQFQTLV
Description: Biophysical characteristics of certain anti-PD-1 antibodies were analyzed by biolayer interferometry (BLI), using the ForteBio Octet Red system (Pall Corporation, Menlo Park, Calif.). The antibodies were immobilized on BLI biosensors and then incubated with the soluble extracellular domain of human PD-1. Using standard biophysics methods, apparent on-rates and off-rates were then inferred for PD-1 with anti-PD-1 antibodies.

[7] = target: T3, recombinant soluble extracellular domain (ECD) of ICOS (inducible T-cell costimulator) (R&D Systems) (UniProt Q9Y6W8 21-140, limits assumed); test: ELISA, ICOS ECD coated on the plate, OD 450 nm; anti-ICOS as positive control
T3 construct: extracellular domain
T3 sequence (looked up): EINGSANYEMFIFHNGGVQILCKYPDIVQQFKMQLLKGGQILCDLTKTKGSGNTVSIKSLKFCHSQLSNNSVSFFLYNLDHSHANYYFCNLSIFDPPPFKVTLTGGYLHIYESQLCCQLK
Description: (§1) To assess selectivity of the anti-PD-1 antibodies, ELISA was used to generate dose response curves for binding of the anti-PD-1 antibodies to several immunomodulatory cell surface proteins. Recombinant soluble extracellular domains (ECDs) of ICOS (inducible T-cell costimulator), PD-1, CD28 or CTLA4 (R&D Systems, Minneapolis, Minn.) were coated onto ELISA assay plates. Binding of each anti-PD-1 antibody and each control antibody to each target protein was then assessed over a range of antibody concentrations (FIGS. 9A-9D).

[8] = target: T4, recombinant soluble extracellular domain (ECD) of PD-1 (R&D Systems) (UniProt Q15116 25-170); test: ELISA, PD-1 ECD coated on the plate, antibody titrated from about 0.003 to about 13 nM, OD 450 nm
T4 construct: extracellular domain; also called PD-1 ECD
T4 sequence (Q15116 25-170): as the sequence (Q15116 25-170) above
Description: as §1

[9] = target: T5, recombinant soluble extracellular domain (ECD) of CD28 (R&D Systems) (UniProt P10747 19-152, limits assumed); test: ELISA, CD28 ECD coated on the plate, OD 450 nm; anti-CD28 as positive control
T5 construct: extracellular domain
Description: as §1

[10] = target: T6, recombinant soluble extracellular domain (ECD) of CTLA4 (R&D Systems) (UniProt P16410 36-161, limits assumed); test: ELISA, CTLA4 ECD coated on the plate, OD 450 nm; anti-CTLA4 as positive control
T6 construct: extracellular domain
T6 sequence (P16410 36-161 limits assumed): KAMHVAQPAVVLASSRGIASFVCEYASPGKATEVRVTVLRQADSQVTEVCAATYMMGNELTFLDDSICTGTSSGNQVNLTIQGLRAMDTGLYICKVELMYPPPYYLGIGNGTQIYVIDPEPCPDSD
Description: as §1

[11] = target: recombinant soluble extracellular domain (ECD) of PD-1 (R&D Systems) (UniProt Q15116); test: ELISA, PD-1 ECD coated on the plate, antibody titrated from about 0.003 to about 13 nM, OD 450 nm
Sequence of recombinant soluble extracellular domain (ECD) of PD-1 (R&D Systems) (UniProt Q15116) (Q15116 25-170): as the sequence (Q15116 25-170) above

[12] = target: human Programmed Death-1 (PD-1) expressed on the cell surface (human) (UniProt Q15116); test: flow cytometry blocking assay: HEK293 cells expressing PD-1 incubated with 10 µg/ml antibody, washed, stained with PD-L1-Ig Alexa-488 as the blocked ligand
[13] = target: human Programmed Death-1 (PD-1) expressed on the cell surface (human) (UniProt Q15116); test: cell-based or functional assay

T1 sequence (Q15116 25-288): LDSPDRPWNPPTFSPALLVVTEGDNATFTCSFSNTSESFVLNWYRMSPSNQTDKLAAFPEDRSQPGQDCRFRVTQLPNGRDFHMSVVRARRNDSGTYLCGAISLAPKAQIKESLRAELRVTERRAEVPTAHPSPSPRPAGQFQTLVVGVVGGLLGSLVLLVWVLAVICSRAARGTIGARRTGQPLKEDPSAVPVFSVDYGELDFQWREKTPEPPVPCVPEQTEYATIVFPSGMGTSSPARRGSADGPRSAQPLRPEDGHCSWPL
Sequence of human Programmed Death-1 (PD-1) expressed on the cell surface (human) (Q15116 25-288): as above

Molecule: isotype control mouse IgG1 (antibody)
- percent of cells in gate Alexa Fluor 488-A+ (PD-L1-Ig staining after the antibody) [1]: 37.6%
- percent of cells in gate Alexa Fluor 488-A- (PD-L1-Ig staining after the antibody) [1]: 62.4%

B1: 244C8-2 (100244_C8_HC1 + 100245_C8_LC3) (antibody, V domains shown)
VH: QVQLVQSGAEVKKPGASVKVSCKASGYTFTSYWMHWVRQAPGQGLEWMGMIDPSNSETSLNQKFQGRVTMTVDKSTNTVYMELSSLRSEDTAVYYCARSRGNYAYEMDYWGQGTLVTVSS
VL: DIVLTQSPGTLSLSPGEKVTLSCRASSSVSSNYLYWYQQKPGQAPRLVIYSTSNLATGIPDRFSGSGSGTDYTLTISRLEPEDFAVYFCHQWSSYPPTFGQGTKVEIK
- Fold Induction IFN-γ (relative to anti-CD3 + anti-CD28 only; antibody at 5 ug/mL) [2]: 2.66 fold
- Fold Induction IFN-γ (relative to anti-CD3 + anti-CD28 only; antibody at 10 ug/mL) [2]: 2.81 fold
- Fold Induction IFN-γ (relative to isotype control; NSCLC biopsy cells, 20 µg/mL) [3]: 7.76 fold
- Fold Induction IFN-γ (normalized to nivolumab; 20 µg/mL total antibody) [4]: 1.77 fold

B2: 100388_D4VH3_100389_D4VK5 (antibody, V domains shown)
VH: EVQLQESGAELVRPGASVTLSCKASGYTFTDYEMHWVKQTPVHGLEWIGVIDPGTGGTAYNQKFKVKALLTADKSSNTAYMELRSLTSEDSAVYYCTSEKFGSNYYFDYWGQGTTLTVSS
VL: DIVITQTPLSLPVSLGDQASISCRSSQTIVHSDGNTYLEWYLQKPGQSPKLLIYKVSNRFSGVPDRFSGSGSGTDFTLKISRVEAEDLGVYYCFQGSHVPLTFGAGTKLEIK
notes: Mouse variable regions; cloned into pFUSE-CHIg-mG1 (murine IgG1 Fc), expressed in HEK293
- CD4 IFNγ % positive [5]: 21.2 % positive
- CD8 IFNγ % positive [5]: 31.2 % positive
- CD8 TNFα % positive [5]: 8.56 % positive
- Kd [6]: 2.69 nM
- koff [6]: 0.000999 s⁻¹
- kon [6]: 371000 M⁻¹ s⁻¹
- binding result [7]: no binding (tested: about 13 nM)
- EC50 (read off the curve) [8]: ~0.05 nM
- binding result [9]: no binding (tested: about 13 nM)
- binding result [10]: no binding (tested: about 13 nM)

B3: 100413_E1VH9_100414_E1VK5 (antibody, V domains shown)
VH: EVQLQESGPSLVQPSQSLSITCTVSGFSLTSYGVHWVRQSPGKGLEWLGVIWRGGNTDYNAAFMSRLSITKDNSKSQVFFKMNSLQADDTAIYYCAASMIGGYWGQGTTLTVSS
VL: B2 VL with I4L, T28S, D33N, D75N, I111L
notes: as for B2
- CD4 IFNγ % positive [5]: 20.2 % positive
- CD8 IFNγ % positive [5]: 27 % positive
- CD8 TNFα % positive [5]: 11.1 % positive
- Kd [6]: 58.9 nM
- koff [6]: 0.0299 s⁻¹
- kon [6]: 507000 M⁻¹ s⁻¹
- binding result [7]: no binding (tested: about 13 nM)
- EC50 (read off the curve) [8]: ~0.06 nM
- binding result [9]: no binding (tested: about 13 nM)
- binding result [10]: no binding (tested: about 13 nM)

B4: 388D4-2 (100388_D4_HC3 + 100389_D4_LC3) (antibody, V domains shown)
VH: EVQLVQSGAEVKKPGASVKVSCKASGYTFTDYEMHWVRQAPGQRLEWMGVIDPGTGGTAYNQKFQGRVTITADKSASTAYMELSSLRSEDTAVYYCTSEKFGSNYYFDYWGQGTLVTVSS
VL: DIVMTQTPLSSPVTLGQPASISCRSSQTIVHSDGNTYLEWYQQRPGQPPRLLIYKVSNRFSGVPDRFSGSGAGTDFTLKISRVEAEDVGVYYCFQGSHVPLTFGQGTKLEIK
- Fold Induction IFN-γ (relative to anti-CD3 + anti-CD28 only; antibody at 5 ug/mL) [2]: 2.06 fold
- Fold Induction IFN-γ (relative to anti-CD3 + anti-CD28 only; antibody at 10 ug/mL) [2]: 1.82 fold
- Fold Induction IFN-γ (relative to isotype control; NSCLC biopsy cells, 20 µg/mL) [3]: 7.58 fold

B5: mouse anti-PD-1 cl. EH12.2H7 (antibody, from another filing, V domains shown)
VH: QVQLQQSGAELAKPGASVQMSCKASGYSFTSSWIHWVKQRPGQGLEWIGYIYPSTGFTEYNQKFKDKATLTADKSSSTAYMQLSSLTSEDSAVYYCARWRDSSGYHAMDYWGQGTSVTVSS
VL: DIVLTQSPASLTVSLGQRATISCRASQSVSTSGYSYMHWYQQKPGQPPKLLIKFGSNLESGIPARFSGSGSGTDFTLNIHPVEEEDTATYYCQHSWEIPYTFGGGTKLEIK
- EC50 (read off the curve) [11]: 0.02 nM
- percent of cells in gate Alexa Fluor 488-A+ (PD-L1-Ig staining after the antibody) [12]: 10.3%
- percent of cells in gate Alexa Fluor 488-A- (PD-L1-Ig staining after the antibody) [12]: 89.7%
- CD4 IFNγ % positive [13]: 12.8 % positive
- CD8 IFNγ % positive [13]: 19.5 % positive
- CD8 TNFα % positive [13]: 14.1 % positive

B6: 100246_A10VH1_100247_A10VK3 (antibody, V domains shown)
VH: EVQLQESGPGLVKPSQSLSLTCTVTGYSITSDYAWNWIRQFPGNKLEWMGYITYSGSPTYNPSLKSQFSITRDTSKNQFFLQLNSLTTEDTATYYCARGLGGHYFDYWGQGTTLTVSS
VL: DIVLTQSPDTLSVTPGDRVSLSCRASQSISDYLHWYQQKSHESPRLLIKYASQSISGIPSRFSGSGSGSDFTLSINSVEPEDVGVYYCQNGHSYPYTFGGGTKLELK
notes: as for B2
- CD4 IFNγ % positive [5]: 20.3 % positive
- CD8 IFNγ % positive [5]: 26.2 % positive
- CD8 TNFα % positive [5]: 14.9 % positive
- Kd [6]: 76.4 nM
- koff [6]: 0.0123 s⁻¹
- kon [6]: 161000 M⁻¹ s⁻¹
- binding result [7]: no binding (tested: about 13 nM)
- EC50 (read off the curve) [8]: ~0.04 nM
- binding result [9]: no binding (tested: about 13 nM)
- binding result [10]: no binding (tested: about 13 nM)

B7: 100244_C8VH3_100245_C8VK5 (antibody, V domains shown)
VH: EVQLQESGPELVRPGASVKMSCKASGYTFTSYWMHWVKQRPGQGLEWIGMIDPSNSETSLNQKFKDKATLNVDKSTNTAYMQLSSLTSEDSAVYYCARSRGNYAYEMDYWGQGTSVTVSS
VL: DIVITQTTAIMSASPGEKVTLTCSASSSVSSNYLYWYQQRPGSSPKLWIYSTSNLASGVPARFSGSGSGTSYSLTISSMEAEDAASYFCHQWSSYPPTFGSGTKLEIK
notes: as for B2
- CD4 IFNγ % positive [5]: 9.64 % positive
- CD8 IFNγ % positive [5]: 19.9 % positive
- CD8 TNFα % positive [5]: 14.5 % positive
- Kd [6]: 15.1 nM
- koff [6]: 0.00322 s⁻¹
- kon [6]: 213000 M⁻¹ s⁻¹
- binding result [7]: no binding (tested: about 13 nM)
- EC50 (read off the curve) [8]: ~0.03 nM
- binding result [9]: no binding (tested: about 13 nM)
- binding result [10]: no binding (tested: about 13 nM)
